Key:
KPC-luc tumors = test: Orthotopic KPC-luc pancreatic tumor model, intravital imaging (IVIS); type: in vivo, C57BL/6 mice; conditions: PEGPH20 4.5 mg/kg (~90 ug/mouse) i.v. day 7; shIDO-ST 5×10^6 cfu/mouse i.v. day 8 (alone: days 8 and 12); n=3
Protocol: To determine the effects of shIDO-ST and PEGPH20™, nine C57BL/6 mice were injected orthotopically (in the pancreas) with 5×10^5 KPC-luc cells. Three small groups (n=3) were created: shIDO-ST alone, PEGPH20™ alone, and shIDO-ST with PEGPH20™. The shIDO-ST alone group received shIDO-ST at a dose of 5×10^6 cfu/mouse through intravenous (i.v.) injection on days 8 and 12. PEGPH20™ alone group received PEGPH20™ at a dose of 4.5 mg/kg (˜90 ug/mouse) on day 7 through i.v. injection. The combination (PEGPH20™ with shIDO-ST) group received PEGPH20™ at 4.5 mg/kg on day 7 followed by treatment with shIDO-ST on day 8 at 5×10^6 cfu/mouse. Mice were imaged using an intravital imaging system (IVIS) at indicated time points after tumor cell implantation. […]
Titration of combination treatment with shIDO-ST and PEGPH20™ was performed to reduce the toxicity observed in initial experiment (FIG. 2). […] Photons emitted from mice imaged in FIG. 2 were quantitated using Living Image® software.
Due to the sensitivity of 7 day KPC-luc tumors to the combination PEGPH20™ and […] treatment (FIG. 2), treatment of implanted KPC-luc tumors was delayed to day 14. […] Doses (previously determined from titration studies described in FIG. 2) consisted of 45 ug of PEGPH20™ followed by 5×10^6 cfu/mouse of shIDO-ST or shScr-ST. […] Photons emitted from mice imaged in FIG. 4 were quantitated using Living Image® software. […]

hyaluronan = test: Hyaluronan staining of KPC-luc tumor sections; type: in vivo, mice; conditions: forty-eight hours after treatment; 14 day orthotopic tumors
[1] = test system: vessels within the tumor mass; test: Anti-CD31 staining of vessels within the tumor mass; type: in vivo, mice; conditions: 14 day tumors, versus untreated (majority of closed vessels)
From the text: Sections from 14 day tumors of mice untreated or treated with PEGPH20 were stained with anti-CD31 antibody to locate cross sections of vessels within the tumor mass. FITC-conjugated secondary specific to CD31 primary and DAPI staining were visualized by fluorescence microscopy.

B1: PEGPH20™: pegylated recombinant human hyaluronidase PH-20 (Halozyme, Inc.) (protein, listed as Homo Sapiens)
chain: MGVLKFKHIFFRSFVKSSGVSQIVFTFLLIPCCLTLNFRAPPVIPNVPFLWAWNAPSEFCLGKFDEPLDMSLFSFIGSPRINATGQGVTIFYVDRLGYYPYIDSITGVTVNGGIPQKISLQDHLDKAKKDITFYMPVDNLGMAVIDWEEWRPTWARNWKPKDVYKNRSIELVQQQNVQLSLTEATEKAKQEFEKAGKDFLVETIKLGKLLRPNHLWGYYLFPDCYNHHYKKPGYNGSCFNVEIKRNDDLSWLWNESTALYPSIYLNTQQSPVAATLYVRNRVREAIRVSKIPDAKSPLPVFAYTRIVFTDQVLKFLSQDELVYTFGETVALGASGIVIWGTLSIMRSMKSCLLLDNYMETILNPYIINVTLAAKMCSQVLCQEQGVCIRKNWNSSDYLHLNPDNFAIQLEKGGKFTVRGKPTLEDLEQFSEKFYCSCYSTLSCKEKADVKDTDAVDVCIADGVCIDAFLKPPMETEEPQIFYNASPSTLSATMFIVSILFLIISSVASL
modifications: PEGylated
KPC-luc tumors
  tumor growth by IVIS imaging: euthanized due to significantly large tumors
hyaluronan
  hyaluronan in KPC-luc tumor tissue sections: significant depletion of hyaluronan
[1]
  open vessels in tumors (CD31 staining): Many more open vessels

— patent US11141492B2, “Anticancer combinations” (City of Hope, priority 2013, dated 2021)
